Legend:
[1] = target: Cluc‐PtoE2Fa (Populus tomentosa); test: split reporter (BiFC, NanoBiT); LCI of Cluc-PtoE2Fa with PtoDPb1^Hap1/Hap2-Nluc in young N. benthamiana leaves with co-expressed PtoWAK106-GFP (compared with GFP)
[2] = target: Cluc‐PtoE2Fa (Populus tomentosa); test: split reporter (BiFC, NanoBiT); luciferase complementation imaging (LCI): firefly luciferase complementation (Nluc / Cluc fusions) in young N. benthamiana leaves; three biological replicates
[3] = target: Cluc‐PtoWAK106 (Populus tomentosa); test: as above

Row | fold increase in luciferase activity with PtoWAK106-GFP against GFP [1] | luciferase intensity with PtoWAK106-GFP, percent higher than with PtoDPb1^Hap2 [1] | luciferase activity, percent stronger than with PtoDPb1^Hap2 [2] | luciferase activity, percent higher than with PtoDPb1^Hap2 [3] | Substance
1 | 3.61 fold | 47.3% | 85.8% | 37% | PtoDPb1^Hap1‐Nluc (natural protein)
2 | 3.8 fold | – | – | – | PtoDPb1^Hap2‐Nluc (natural protein)

Source: PMC10955495
